Values of other authors, collected in article PMC2880639.

Target: His62 (UniProt position 62, VESEAHPGSVQ)
Assay: kinetics
Details: dissociated species undergoing association

Q: With “R67 dihydrofolate reductase (type II DHFR) (Escherichia coli (plasmid R67))” as the substance, how does the pKa read?
A: 6.6
